Experimental data: the RNAGym collection of RNA variant scans (doi:10.1021/acssynbio.7b00057)

B1: Pistol ribozyme (parent)
chain: GGGUCGUUGUUCCAUAAUCGCGUGGAUAUGGCACGCAAGUUUCUACCGGGCACCGUAAAUGUCCGACUGGAGCCGUUCGGGCGGCUAUAAACAGACCUCAGGCCCGAAGCGUGGCGGCACCUGCCGCCGGUGGUAAAAAAGAUCGGAAGAGCACACGUCU

Variants of: B1
Assay: aptazyme ON/OFF ratio, guanine; higher = stronger switching; co-transcriptional cleavage with and without guanine

| Variant | aptazyme ON/OFF ratio |
| --- | --- |
| U7G U8G G9U U10G U11C C12G | 1.11 |
| U7G U8G G9U U10G U11A C12G C13G | 1.15 |
| U7G U8G G9U U10G U11A C12G C13A | 1.08 |
| U7G U8G G9U U10G U11A C12G C13U | 1.14 |
| U7G U8G G9U U10A U11A C12A | 1.14 |
| U7G U8G G9U U10A U11A C12U | 1.31 |
| U7G U8G G9U U10A U11A C12G | 1.19 |
| U7G U8G G9U U10A U11C C13A | 1.11 |
| U7G U8G G9U U10A U11C C13U | 1.07 |
| U7G U8G G9U U10A U11C C13G | 1.09 |
| U7G U8G G9U U10C U11C C12G C13G | 1.12 |
| U7G U8G G9U U10C U11C C12G C13A | 1.19 |
| U7G U8G G9U U10C U11C C12G C13U | 1.33 |
| U7G U8G G9C U10C U11G C13G | 1.27 |
| U7G U8G G9C U10C U11G C13A | 1.38 |
| U7G U8G G9C U10C U11G C13U | 1.3 |
| U7G U8G G9U U10G U11A C13U | 1.19 |
| U7G U8G G9U U10G U11A C13G | 1.16 |
| U7G U8G G9U U10G U11A C13A | 1.13 |
| U7G U8G G9C U10G C12G C13U | 1.2 |
| U7G U8G G9C U10G C12G C13G | 1.12 |

| Variant | aptazyme ON/OFF ratio |
| --- | --- |
| U7G U8G G9C U10G C12G C13A | 1.11 |
| U7G U8G G9U U10A C12U C13G | 1.09 |
| U7G U8G G9U U10A C12U C13A | 1.11 |
| U7G U8G G9U U10A C12U C13U | 1.06 |
| U7G U8G G9U U10G C12G | 1.33 |
| U7G U8G G9U U10G C12A | 1.44 |
| U7G U8G G9U U10G C12U | 1.13 |
| U7G U8G G9C U10G U11G | 1.26 |
| U7G U8G G9C U10G U11A | 1.32 |
| U7G U8G G9C U10G U11C | 1.06 |
| U7G U8G G9C U10G C12A C13G | 1.06 |
| U7G U8G G9C U10G C12A C13U | 1.14 |
| U7G U8G G9C U10G C12A C13A | 1.07 |
| U7G U8G G9U U10A U11G C12U C13A | 1.1 |
| U7G U8G G9U U10A U11G C12U C13G | 1.11 |
| U7G U8G G9U U10A U11G C12U C13U | 1.08 |
| U7G U8G G9C U11C C12G C13G | 1.06 |
| U7G U8G G9C U11C C12G C13A | 1.16 |
| U7G U8G G9C U11C C12G C13U | 1.39 |
| U7G U8G G9U C12A C13U | 1.06 |
| U7G U8G G9U C12A C13G | 1.1 |

| Variant | aptazyme ON/OFF ratio |
| --- | --- |
| U7G U8G G9U C12A C13A | 1.17 |
| U7G U8G G9C U11A C12U C13U | 1.26 |
| U7G U8G G9C U11A C12U C13G | 1.15 |
| U7G U8G G9C U11A C12U C13A | 1.13 |
| U7G U8G G9C U10C U11G C12U | 1.37 |
| U7G U8G G9C U10C U11G C12A | 1.22 |
| U7G U8G G9C U10C U11G C12G | 1.23 |
| U7G U8G G9U U10A U11G | 1.27 |
| U7G U8G G9U U10A U11A | 2.87 |
| U7G U8G G9U U10A U11C | 1.09 |
| U7G U8G G9C U10G U11C C12G C13G | 1.05 |
| U7G U8G G9C U10G U11C C12G C13U | 1.16 |
| U7G U8G G9C U10G U11C C12G C13A | 1.19 |
| U7G U8G G9U U10A U11G C12U | 1.07 |
| U7G U8G G9U U10A U11G C12G | 1.08 |
| U7G U8G G9U U10A U11G C12A | 1.03 |
| U7G U8G G9C U10C U11C C12U C13G | 1.23 |
| U7G U8G G9C U10C U11C C12U C13U | 1.06 |
| U7G U8G G9C U10C U11C C12U C13A | 1.08 |
| U7G U8G G9U C13A | 1.44 |
| U7G U8G G9U C13U | 1.43 |

| Variant | aptazyme ON/OFF ratio |
| --- | --- |
| U7G U8G G9U C13G | 1.26 |
| U7G U8G G9C U10G U11A C12U C13A | 1.13 |
| U7G U8G G9C U10G U11A C12U C13U | 1.1 |
| U7G U8G G9C U10G U11A C12U C13G | 1.1 |
| U7G U8G G9C U11A C12G C13U | 1.2 |
| U7G U8G G9C U11A C12G C13A | 1.12 |
| U7G U8G G9C U11A C12G C13G | 1.07 |
| U7G U8G G9C U10C U11C C13U | 1.07 |
| U7G U8G G9C U10C U11C C13A | 1.09 |
| U7G U8G G9C U10C U11C C13G | 1.04 |
| U7G U8G G9U U10G U11C | 1.1 |
| U7G U8G G9U U10G U11A | 1.4 |
| U7G U8G G9U U10G U11G | 1.81 |
| U7G U8G G9C U10C U11C C12U | 1.18 |
| U7G U8G G9C U11A C12A C13A | 1.14 |
| U7G U8G G9C U11A C12A C13G | 1.05 |
| U7G U8G G9C U11A C12A C13U | 1.16 |
| U7G U8G G9U U10A U11A C12U C13A | 1.11 |
| U7G U8G G9U U10A U11A C12U C13U | 1.18 |
| U7G U8G G9U U10A U11A C12U C13G | 1.11 |
| U7G U8G G9C U11G C12U C13G | 1.05 |
